One may read the Kd as the concentration at which binding is half-saturated. A higher Kd goes with lower affinity.

In publication PMC5725915 one finds Kd data, which are given here for one substance.

The target of this test is human factor Xa (human). Kind of test: prothrombinase activity titration.
Chain of human factor Xa (human) (P00742 whole entry): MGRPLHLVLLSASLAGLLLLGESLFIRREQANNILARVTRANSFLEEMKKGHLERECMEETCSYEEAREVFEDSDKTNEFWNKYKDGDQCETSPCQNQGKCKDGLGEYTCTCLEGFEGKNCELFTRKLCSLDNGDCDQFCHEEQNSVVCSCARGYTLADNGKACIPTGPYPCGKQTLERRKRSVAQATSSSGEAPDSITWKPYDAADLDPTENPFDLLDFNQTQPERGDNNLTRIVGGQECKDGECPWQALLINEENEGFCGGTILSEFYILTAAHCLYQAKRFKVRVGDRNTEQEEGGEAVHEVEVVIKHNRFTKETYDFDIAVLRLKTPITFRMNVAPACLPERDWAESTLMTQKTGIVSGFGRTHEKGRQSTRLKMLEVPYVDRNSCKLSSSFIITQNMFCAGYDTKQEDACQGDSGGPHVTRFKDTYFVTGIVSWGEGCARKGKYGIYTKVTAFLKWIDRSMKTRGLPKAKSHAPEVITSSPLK

For the substance “wild-type recombinant human fV activated with thrombin (rhfVa^WT) (from UniProt P12259 29-737; P12259 1574-2224) (complex)”, the Kd turned out to be 480 pM.
